According to paper PMC7806825:

Target: Recombinant ligand-binding domain of McpC (amino acid residues 35-189) (Salmonella enterica serovar Typhimurium SL1344)
Experiment: AUC; sedimentation velocity analytical ultracentrifugation (SV-AUC), done commercially (KBI BioPharma); purified McpC ligand-binding domain; dimers present at >=4 mg/mL; monomer to dimer

Substance: Recombinant ligand-binding domain of McpC (amino acid residues 35-189) (domain or fragment)
- stoichiometry N: 2
